Results taken from the supplement of paper PMC11246515.
± gives the standard deviation of the averaged measurements.

Test: total protein half-life in vivo (active degradation + dilution); higher = more stable protein
[1] = E. coli NCM3722 delta-clpP delta-lon delta-hslV, growth: N-lim chemostat, doubling time 6 h
[2] = wild type E. coli NCM3722, growth: C-lim chemostat, doubling time 6 h
[3] = wild type E. coli NCM3722, growth: P-lim chemostat, doubling time 12 h
[4] = E. coli NCM3722 delta-lon, growth: N-lim chemostat, doubling time 6 h
[5] = E. coli NCM3722 delta-smpB, growth: N-lim chemostat, doubling time 6 h
[6] = wild type E. coli NCM3722, growth: C-lim chemostat, doubling time 3 h
[7] = wild type E. coli NCM3722, growth: C-lim chemostat, doubling time 12 h
[8] = wild type E. coli NCM3722, growth: N-lim chemostat, doubling time 6 h
[9] = wild type E. coli NCM3722, growth: N-lim chemostat, doubling time 12 h
[10] = wild type E. coli NCM3722, growth: P-lim chemostat, doubling time 6 h
[11] = E. coli NCM3722 delta-clpP, growth: N-lim chemostat, doubling time 6 h
[12] = E. coli NCM3722 delta-hslV, growth: N-lim chemostat, doubling time 6 h

Row | Sequence | total protein half-life in vivo [1] [h] | total protein half-life in vivo [2] [h] | total protein half-life in vivo [3] [h] | total protein half-life in vivo [4] [h] | total protein half-life in vivo [5] [h] | total protein half-life in vivo [6] [h] | total protein half-life in vivo [7] [h] | total protein half-life in vivo [8] [h] | total protein half-life in vivo [9] [h] | total protein half-life in vivo [10] [h] | total protein half-life in vivo [11] [h] | total protein half-life in vivo [12] [h]
1 | MTTLTAQQIACVYAWLAQLFSRELDDEQLTQIASAQMAEWFSLLKSEPPLTAAVNELENRIATLTVRDDARLELAADFCGLFLMTDKQAALPYASAYKQDEQEIKRLLVEAGMETSGNFNEPADHLAIYLELLSHLHFSLGEGTVPARRIDSLRQKTLTALWQWLPEFVARCRQYDSFGFYAALSQLLLVLVECDHQNR | 5.85 | 4.24 | 9.47 ± 1.7 |  |  |  |  |  |  |  |  | 
2 | MTTNTHTLQIEEILELLPHRFPFLLVDRVLDFEEGRFLRAVKNVSVNEPFFQGHFPGKPIFPGVLILEAMAQATGILAFKSVGKLEPGELYYFAGIDEARFKRPVVPGDQMIMEVTFEKTRRGLTRFKGVALVDGKVVCEATMMCARSREA [P0A6Q6] | 5.67 ± 0.36 | 6.1 ± 0.81 | 13.4 ± 0.14 | 5.38 ± 0.24 | 5.504 ± 0.036 | 2.86 ± 0.45 | 11.2 ± 0.12 | 6.23 ± 0.6 | 11.9 ± 0.43 | 5.75 ± 0.8 |  | 
3 | MTTNTVSRKVAWLRVVTLAVAAFIFNTTEFVPVGLLSDIAQSFHMQTAQVGIMLTIYAWVVALMSLPFMLMTSQVERRKLLICLFVVFIASHVLSFLSWSFTVLVISRIGVAFAHAIFWSITASLAIRMAPAGKRAQALSLIATGTALAMVLGLPLGRIVGQYFGWRMTFFAIGIGALITLLCLIKLLPLLPSEHSGSLKSLPLLFRRPALMSIYLLTVVVVTAHYTAYSYIEPFVQNIAGFSANFATALLLLLGGAGIIGSVIFGKLGNQYASALVSTAIALLLVCLALLLPAANSEIHLGVLSIFWGIAMMIIGLGMQVKVLALAPDATDVAMALFSGIFNIGIGAGALVGNQVSLHWSMSMIGYVGAVPAFAALIWSIIIFRRWPVTLEEQTQ | 5.1 ± 0.12 |  | 8.61 ± 0.96 |  | 4.997 ± 0.0071 |  |  | 4.68 | 7.998 ± 0.022 | 5.12 ± 0.23 | 4.77 | 4.16
4 | MTTPLKKIVIVGGGAGGLEMATQLGHKLGRKKKAKITLVDRNHSHLWKPLLHEVATGSLDEGVDALSYLAHARNHGFQFQLGSVIDIDREAKTITIAELRDEKGELLVPERKIAYDTLVMALGSTSNDFNTPGVKENCIFLDNPHQARRFHQEMLNLFLKYSANLGANGKVNIAIVGGGATGVELSAELHNAVKQLHSYGYKGLTNEALNVTLVEAGERILPALPPRISAAAHNELTKLGVRVLTQTMVTSADEGGLHTKDGEYIEADLMVWAAGIKAPDFLKDIGGLETNRINQLVVEPTLQTTRDPDIYAIGDCASCPRPEGGFVPPRAQAAHQMATCAMNNILAQMNGKPLKNYQYKDHGSLVSLSNFSTVGSLMGNLTRGSMMIEGRIARFVYISLYRMHQIALHGYFKTGLMMLVGSINRVIRPRLKLH | 6.51 ± 0.53 |  | 14.2 ± 0.38 | 6.332 ± 0.062 | 5.82 ± 0.36 | 3.15 ± 0.057 | 11.78 ± 0.097 | 6.12 ± 0.28 | 12.7 ± 0.44 | 6.07 ± 0.096 | 6.87 ± 1.2 | 6.08 ± 0.085
5 | MTTQVPPSALLPLNPEQLARLQAATTDLTPTQLAWVSGYFWGVLNQQPAALAATPAPAAEMPGITIISASQTGNARRVAEALRDDLLAAKLNVKLVNAGDYKFKQIASEKLLIVVTSTQGEGEPPEEAVALHKFLFSKKAPKLENTAFAVFSLGDSSYEFFCQSGKDFDSKLAELGGERLLDRVDADVEYQAAASEWRARVVDALKSRAPVAAPSQSVATGAVNEIHTSPYSKDAPLVASLSVNQKITGRNSEKDVRHIEIDLGDSGMRYQPGDALGVWYQNDPALVKELVELLWLKGDEPVTVEGKTLPLNEALQWHFELTVNTANIVENYATLTRSETLLPLVGDKAKLQHYAATTPIVDMVRFSPAQLDAEALINLLRPLTPRLYSIASSQAEVENEVHVTVGVVRYDVEGRARAGGASSFLADRVEEEGEVRVFIEHNDNFRLPANPETPVIMIGPGTGIAPFRAFMQQRAADEAPGKNWLFFGNPHFTEDFLYQVEWQRYVKDGVLTRIDLAWSRDQKEKVYVQDKLREQGAELWRWINDGAHIYVCGDANRMAKDVEQALLEVIAEFGGMDTEAADEFLSELRVERRYQRDVY | 5.2 ± 0.35 | 4.99 ± 0.42 | 8.98 ± 1 | 4.31 ± 0.044 | 3.24 ± 0.067 | 2.808 ± 0.02 | 8.53 ± 0.79 | 3.58 ± 0.06 | 5.215 ± 0.029 | 4.99 ± 0.36 | 3.456 ± 0.027 | 3.67 ± 0.1
6 | MTTSMLNAKLLPTAPSAAVVVVRVVVVVGNAP | 3.54 |  |  |  |  |  |  |  |  |  |  | 
7 | MTTVYTLVSWLAILGYWLLIAGVTLRILMKRRAVPSAMAWLLIIYILPLVGIIAYLAVGELHLGKRRAERARAMWPSTAKWLNDLKACKHIFAEENSSVAAPLFKLCERRQGIAGVKGNQLQLMTESDDVMQALIRDIQLARHNIEMVFYIWQPGGMADQVAESLMAAARRGIHCRLMLDSAGSVAFFRSPWPELMRNAGIEVVEALKVNLMRVFLRRMDLRQHRKMIMIDNYIAYTGSMNMVDPRYFKQDAGVGQWIDLMARMEGPIATAMGIIYSCDWEIETGKRILPPPPDVNIMPFEQASGHTIHTIASGPGFPEDLIHQALLTAAYSAREYLIMTTPYFVPSDDLLHAICTAAQRGVDVSIILPRKNDSMLVGWASRAFFTELLAAGVKIYQFEGGLLHTKSVLVDGELSLVGTVNLDMRSLWLNFEITLAIDDKGFGADLAAVQDDYISRSRLLDARLWLKRPLWQRVAERLFYFFSPLL [P0A6H8] | 6.74 ± 0.71 | 6.636 ± 0.027 | 13.1 ± 0.13 | 6.87 ± 0.85 | 6.25 ± 0.099 | 3.38 ± 0.26 | 13.5 ± 0.82 | 6.16 ± 0.22 | 13.1 ± 1.4 | 6.275 ± 0.026 |  | 7.06 ± 0.36
8 | MTVAYIAIGSNLASPLEQVNAALKALGDIPESHILTVSSFYRTPPLGPQDQPDYLNAAVALETSLAPEELLNHTQRIELQQGRVRKAERWGPRTLDLDIMLFGNEVINTERLTVPHYDMKNRGFMLWPLFEIAPELVFPDGEMLRQILHTRAFDKLNKW |  |  | 10.7 | 4.82 |  | 3.22 ± 0.3 | 10.3 | 3.76 |  | 5.3 | 4.02 | 4.41
